Test results taken from patent US20110305716A1.
One block for each substance: values may come before it.

Key:
[1] = biological target: rat total IgG (Sigma-Aldrich) (rat); assay: ELISA; rat total IgG coated on plate, 10 ng TGF-beta in PBS, 18 h 4 C, bound TGF-beta detected with TGF-beta ELISA kit
[2] = biological target: rat total IgG (Sigma-Aldrich) (rat); assay: ELISA; rat total IgG coated on plate, 10 ng TGF-beta in 10% glycerol in PBS, 18 h 4 C, bound TGF-beta detected with TGF-beta ELISA kit
[3] = biological target: rat total IgG (Sigma-Aldrich) (rat); assay: ELISA; rat total IgG coated on plate, 10 ng TGF-beta in 0.1M Tris pH 7.4 (0 mM NaCl), 18 h 4 C, bound TGF-beta detected with TGF-beta ELISA kit
[4] = biological target: rat total IgG (Sigma-Aldrich) (rat); assay: ELISA; rat total IgG coated on plate, 10 ng TGF-beta in 10% glycerol in 0.1M Tris pH 7.4, 18 h 4 C, bound TGF-beta detected with TGF-beta ELISA kit
[5] = biological target: TGF-beta receptors on mink lung epithelial cells (ATCC CCL-64) (mink); assay: cell-based or functional assay
[6] = biological target: Mouse IgG1 (eBioscience) (mouse); assay: Sephadex G-50 gel filtration of the TGF-beta/IgG mixture; fractions assayed by TGF-beta ELISA
[7] = biological target: Mouse IgG2a (eBioscience) (mouse); assay: as above
[8] = biological target: total mouse IgG (Sigma-Aldrich) (mouse); assay: 20 ng TGF-beta and 1 ug soluble total mouse IgG, 5 min in PBS at 42 C; Sepharose G-50 spin column; TGF-beta ELISA of eluate
[9] = biological target: total mouse IgG (Sigma-Aldrich) (mouse); assay: 20 ng TGF-beta and 1 ug soluble total mouse IgG, 5 min in PBS at room temperature; Sepharose G-50 spin column; TGF-beta ELISA of eluate
[10] = biological target: total mouse IgG (Sigma-Aldrich) (mouse); assay: 20 ng TGF-beta and 1 ug soluble total mouse IgG, 5 min in 0.5x PBS pH 11 at room temperature; Sepharose G-50 spin column; TGF-beta ELISA of eluate

Net Absorbance (450) (absorbance at 450) [1]: 0.18 | Net Absorbance (450) (absorbance at 450) [2]: 0 | Net Absorbance (450) (absorbance at 450) [3]: 1.02 | Net Absorbance (450) (absorbance at 450) [4]: 0.7
Substance: TGF-beta (Leinco Technologies, St. Louis, Mo.) (from UniProt P01137 279-390) (ligand)

percent of TGF-beta eluting in the IgG-bound fraction [6]: 40 to 50% | percent of TGF-beta eluting in the IgG-bound fraction [7]: 40 to 50% | Net Absorbance (450) (absorbance at 450) [8]: 0.117 | Net Absorbance (450) (absorbance at 450) [9]: 0.193 | Net Absorbance (450) (absorbance at 450) [10]: 0.558
Substance: Transforming growth factor-beta 1 (Peprotech) (from UniProt P01137 279-390) (ligand)
Cell Viability (OD450/Control OD450) at 0.25 pg/mL acid-dissociated (Treated) AcTigg (OD450/Control OD450) [5]: 0.621 | Cell Viability (OD450/Control OD450) at 2.5 pg/mL acid-dissociated (Treated) AcTigg (OD450/Control OD450) [5]: 0.645 | Cell Viability (OD450/Control OD450) at 25 pg/mL acid-dissociated (Treated) AcTigg (OD450/Control OD450) [5]: 0.651 | Cell Viability (OD450/Control OD450) at 250 pg/mL acid-dissociated (Treated) AcTigg (OD450/Control OD450) [5]: 0.651 | Cell Viability (OD450/Control OD450) at 2500 pg/mL acid-dissociated (Treated) AcTigg (OD450/Control OD450) [5]: 0.616

Substance: mouse AcTigg (TGF-beta 1 non-covalently bound to mouse IgG1), PEG-precipitated, intact (from UniProt P01137 279-390)
Cell Viability (OD450/Control OD450) at 0.25 pg/mL AcTigg (OD450/Control OD450) [5]: 0.965 | Cell Viability (OD450/Control OD450) at 2.5 pg/mL AcTigg (OD450/Control OD450) [5]: 0.924 | Cell Viability (OD450/Control OD450) at 25 pg/mL AcTigg (OD450/Control OD450) [5]: 0.897 | Cell Viability (OD450/Control OD450) at 250 pg/mL AcTigg (OD450/Control OD450) [5]: 0.817 | Cell Viability (OD450/Control OD450) at 2500 pg/mL AcTigg (OD450/Control OD450) [5]: 0.678
